According to patent US20120039908A1 (TRANSTECH PHARMA, published 2012):
Several values for one entry are separate records, joined by “and”; a condition that tells them apart may be missing. Equal entries are not always repeated.

Columns and labels:
[1] = target: T1, S100b protein (Cat. No. 559290, Calbiochem); assay: ELISA, S100b coated on plate; reference S1 control
T1 construct: Coated on the ELISA plate at 20 µg/mL in TBS pH 8.0 with 5 mM CaCl2; also called RAGE ligand S100b
T1 sequence (P04271 2-92, species assumed, looked up): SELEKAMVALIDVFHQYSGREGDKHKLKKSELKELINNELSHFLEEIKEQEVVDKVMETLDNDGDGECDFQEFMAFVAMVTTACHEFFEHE
Procedure: (§1) S100b binding ELISA: An ELISA assay plate was coated with 100 μL/well of 20 μg/mL S100b protein (Cat. No. 559290, Calbiochem, Gibbstown, N.J.) in coating buffer (Tris buffered saline [TBS], pH8.0, with 5 mM CaCl₂) overnight at 4° C. The plate was then washed three times with blocking buffer (TBS pH8.0, with 5 mM CaCl₂, 0.05% Tween20, and 1% bovine serum albumin [BSA]), and blocked with the blocking buffer for 1-1.5 hr. sRAGE-Ig fusion samples were prepared in a separate dilution plate, the highest concentration was 10 μg/mL in blocking buffer, with 1:4 serial dilution in blocking buffer down to 2.4 ng/mL. After blocking, the assay plate was washed with the blocking buffer and 100 μL of the samples were transferred from the dilution plate to the assay plate. The assay plate was incubated at room temperature for 2.5 hr. The assay plate was then washed three times with the blocking buffer, with 1 min soaking time between the washes. The horseradish peroxidase conjugated goat anti-human IgG (Cat. No. A2290, Sigma, St. Louis, Mo.) was added to the plate with 100 μL/well at 1:2500 dilution in the blocking buffer. The plate was incubated for 1 hr at room temperature. The assay plate was then washed three times with the blocking buffer again, and 100 μL 3,3′,5,5′-tetramethylbenzidine (TMB; Cat. No. 34022, Pierce, Rockford, Ill.) was added to each well and the plate was incubated for 8 minutes at room temperature. 100 μL of 1M H₂SO₄ was then added to each well, the plate was shaken and read at 450 nm on a microplate reader.

[2] = target: T2, Abeta (human Aβ peptide; Aβ1-40 or Aβ1-28, Table 5 does not say which) (human, UniProt P05067 672-711); assay: ELISA, Abeta peptide coated on plate; reference S1 control
T2 construct: Coated on the ELISA plate at 20 µg/mL in 1% NH4OH; also called A-beta peptide; amyloid beta
T2 sequence (P05067 672-711 limits assumed): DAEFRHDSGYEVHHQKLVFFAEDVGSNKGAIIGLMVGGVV
Procedure: (§2) Assay for A3 peptide binding activities: Briefly, two human Aβ peptides were tested: Aβ1-40 (Catalogue# A-1153-2, Rpeptide), and Aβ1-28 (Catalogue#24232, AnaSpec). The plates were coated by 20 μg/mL peptide in 1% NH₄OH overnight at 4° C. The plate was then washed with blocking buffer (TBS pH8.0, 0.05% Tween20, and 1% BSA) and blocked for 1 hr at room temperature. All the other steps were performed essentially as described previously herein for S100b binding assay, supra.

[3] = target: T2, Abeta (human Aβ peptide; Aβ1-40 or …); assay: ELISA, Abeta peptide coated on plate, sRAGE-Ig titrated, anti-human IgG-HRP
Procedure: as §2

[4] = target: T1, S100b protein (Cat. No. 559290, …); assay: ELISA, S100b coated on plate, sRAGE-Ig titrated, anti-human IgG-HRP
Procedure: as §1

[5] = target: T2, Abeta (human Aβ peptide; Aβ1-40 or …); assay: ELISA, Abeta peptide coated on plate; reference S1
Procedure: as §2

[6] = target: T2, Abeta (human Aβ peptide; Aβ1-40 or …); assay: ELISA, Abeta peptide coated on plate; reference S2F1
Procedure: as §2

[7] = target: T1, S100b protein (Cat. No. 559290, …); assay: ELISA, S100b coated on plate; reference S1
Procedure: as §1, with “The assay plate was then washed three times with the blocking buffer again, and 100 μL 3,3′,5,5′-tetramethylbenzidine (TMB; Cat. No. 34022, Pierce, Rockford, Ill.) was added to each well and the plate was incubated for 8 minutes at room temperature.” left out

[8] = target: T1, S100b protein (Cat. No. 559290, …); assay: ELISA, S100b coated on plate; reference S1F1
Procedure: as §1, with “The assay plate was then washed three times with the blocking buffer again, and 100 μL 3,3′,5,5′-tetramethylbenzidine (TMB; Cat. No. 34022, Pierce, Rockford, Ill.) was added to each well and the plate was incubated for 8 minutes at room temperature.” left out

B1: sRAGE-Ig fusion protein, sample S1 (control, from untreated CHO cells, unfractionated) (Fc fusion)
chain: QNITARIGEPLVLKCKGAPKKPPQRLEWKLNTGRTEAWKVLSPQGGGPWDSVARVLPNGSLFLPAVGIQDEGIFRCQAMNRNGKETKSNYRVRVYQIPGKPEIVDSASELTAGVPNKVGTCVSEGSYPAGTLSWHLDGKPLVPNEKGVSVKEQTRRHPETGLFTLQSELMVTPAPGGDPRPTFSCSFSPGLPRHRALRTAPIQPRVWEPVPLEEVQLVVEPEGGAVAPPSVFLFPPKPKDTLMISRTPEVTCVVVDVSHEDPEVKFNWYVDGVEVHNAKTKPREEQYNSTYRVVSVLTVLHQDWLNGKEYKCKVSNKALPAPIEKTISKAKGQPREPQVYTLPPSRDELTKNQVSLTCLVKGFYPSDIAVEWESNGQPENNYKTTPPVLDSDGPFFLYSKLTVDKSRWQQGNVFSCSVMHEALHNHYTQKSLSLSPGK
modifications: N-terminal Gln1 cyclized to pyroglutamic acid (pE1); N-linked glycan sites N2, N58, N288 (numbering without the signal): mixture 3-Glycan = 67%, 2-Glycan = 22%
notes: Mostly a non-covalent homodimer (about 78%), with about 19% heterodimer with a furin-cleaved Fc fragment; C-terminal Lys438 partly clipped; also called S1 = control (untreated); sRAGE-Fc
[1]
  Relative binding compared to control: 100%
[2]
  Relative binding compared to control: 100%
[3]
  IC50: 1.24 nM
[4]
  IC50: 0.18 µg/mL and 1.8 nM

B2: sRAGE-Ig fusion protein, sample 1 fraction 2 (S1F2), 2-glycan species from untreated CHO cells (Fc fusion)
chain: B1 chain
modifications: pE1; two of the three N-linked sites (N2, N58, N288) occupied; the filing cannot tell which
notes: RP-HPLC fraction; also called 2-Glycan only
[3]
  IC50: 0.73 nM
[4]
  IC50: 0.104 µg/mL and 1.04 nM

B3: sRAGE-Ig fusion protein, sample 2 fraction 1 (S2F1), 3-glycan species from tunicamycin treated CHO cells (Fc fusion)
chain: B1 chain
modifications: pE1; N-linked glycans at all three sites N2, N58, N288 (3-glycan only)
notes: RP-HPLC fraction; also called 3-Glycan only
[3]
  IC50: 2.51 nM
[4]
  IC50: 0.89 µg/mL and 8.9 nM

B4: sRAGE-Ig fusion protein, sample 1 fraction 1 (S1F1), 3-glycan species from untreated CHO cells (Fc fusion)
chain: B1 chain
modifications: pE1; N-linked glycans at all three sites N2, N58, N288 (3-glycan only)
notes: RP-HPLC fraction exchanged into a stabilizing buffer before the ELISA; also called 3-Glycan only; fully occupied 3-glycan version
[3]
  IC50: 1.21 nM
[4]
  IC50: 0.39 µg/mL and 3.9 nM

B5: sRAGE-Ig fusion protein, sample 2 fraction 3 (S2F3), 0-glycan (aglycosylated) species from tunicamycin treated CHO cells (Fc fusion)
chain: B1 chain
modifications: pyroglutamic acid (pE) at the N-terminus; no glycan at N2, N58 or N288; mixture with or without C-terminal lysine
notes: RP-HPLC fraction; its mass agrees with the theoretical mass of the unglycosylated fusion protein; also called 0-Glycan only; aglycosylated variant
[5]
  fold increase in binding compared to S1 control: 3 fold
[6]
  fold increase in binding compared to 3-glycan S2F1: 6 fold
[1]
  Relative binding compared to control: 529%
[7]
  fold increase in binding compared to S1 control: 5 fold
[8]
  fold increase in binding compared to 3-glycan S1F1: 10 fold
[2]
  Relative binding compared to control: 295%
[3]
  IC50: 0.42 nM
[4]
  IC50: 0.034 µg/mL and 0.34 nM

B6: sRAGE-Ig fusion protein, sample 2 fraction 2 (S2F2), 2-glycan species from tunicamycin treated CHO cells (Fc fusion)
chain: B1 chain
modifications: pE1; two of the three N-linked sites (N2, N58, N288) occupied; the filing cannot tell which
notes: RP-HPLC fraction; also called 2-Glycan only; doubly occupied variant
[3]
  IC50: 0.52 nM
[4]
  IC50: 0.1 µg/mL and 1 nM

B7: sRAGE-Ig fusion protein, sample S2 (from CHO cells treated with tunicamycin, unfractionated) (Fc fusion)
chain: B1 chain
modifications: pE1; N-linked sites N2, N58, N288: mixture 3-Glycan = 42%, 2-Glycan = 16%, 0-Glycan = 31%
notes: Cells treated with 5 µg/mL tunicamycin for 3 days; also called S2 = TMYCN (treated with tunicamycin)
[5]
  fold binding relative to sample S1: ~1.5 fold
[1]
  Relative binding compared to control: 295%
[7]
  fold binding relative to sample S1: ~3 fold
[2]
  Relative binding compared to control: 151%
[3]
  IC50: 0.82 nM
[4]
  IC50: 0.061 µg/mL and 0.61 nM
